In US20200262877A1, “ION CHANNEL-BINDING PEPTIDES AND METHODS OF USE THEREOF” (priority 2017, published 2020):

Assays:
α4β2 = molecular target: T1, α4β2 (Homo sapiens, UniProt P17787+P43681); assay: Ion channel panel (IonWorks Barracuda): α4β2; assay type: cell-based; details: 100% = no change, <100% = inhibition
T1 construct: host or cells: HEK293 or CHO
Summary of the method: (§1)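 Peptides were tested in duplicate at final 20 μM and 200 nM, with concentration set by amino acid analysis, in HEPES-buffered saline. They were applied for at least 5 min to HEK293 or CHO cells transfected with each channel. Currents were expressed as % inhibition, 1-(Ipeptide/Icontrol)×100, or % activation, Ipeptide/Icontrol×100, against a channel-matched reference compound.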

Kir2.1 = molecular target: T2, Kir2.1 (Homo sapiens, UniProt P63252); assay: Ion channel panel (IonWorks Barracuda): Kir2.1; assay type: cell-based; details: 100% = no change, <100% = inhibition
T2 construct: host or cells: HEK293 or CHO
Summary of the method: as §1

Kv1.3 = molecular target: T3, Kv1.3 (Homo sapiens, UniProt P22001); assay: cell-based; assay type: cell-based; details: 100% = no change, <100% = inhibition
T3 construct: host or cells: HEK293 or CHO
Summary of the method: as §1

Kv1.2 = molecular target: T4, Kv1.2 (Homo sapiens, UniProt P16389); assay: cell-based; assay type: cell-based; details: 100% = no change, <100% = inhibition
T4 construct: host or cells: HEK293 or CHO
Summary of the method: as §1

Kv1.1 = molecular target: T5, Kv1.1 (Homo sapiens, UniProt Q09470); assay: cell-based; assay type: cell-based; details: 100% = no change, <100% = inhibition
T5 construct: host or cells: HEK293 or CHO
Summary of the method: as §1

GABA = assay: Ion channel panel (IonWorks Barracuda): GABA; assay type: cell-based; details: 100% = no change, <100% = inhibition
Summary of the method: as §1

5HT3a = molecular target: T6, 5HT3a (Homo sapiens, UniProt P46098); assay: Ion channel panel (IonWorks Barracuda): 5HT3a; assay type: cell-based
T6 construct: host or cells: HEK293 or CHO
T6 sequence (P46098 whole entry, looked up): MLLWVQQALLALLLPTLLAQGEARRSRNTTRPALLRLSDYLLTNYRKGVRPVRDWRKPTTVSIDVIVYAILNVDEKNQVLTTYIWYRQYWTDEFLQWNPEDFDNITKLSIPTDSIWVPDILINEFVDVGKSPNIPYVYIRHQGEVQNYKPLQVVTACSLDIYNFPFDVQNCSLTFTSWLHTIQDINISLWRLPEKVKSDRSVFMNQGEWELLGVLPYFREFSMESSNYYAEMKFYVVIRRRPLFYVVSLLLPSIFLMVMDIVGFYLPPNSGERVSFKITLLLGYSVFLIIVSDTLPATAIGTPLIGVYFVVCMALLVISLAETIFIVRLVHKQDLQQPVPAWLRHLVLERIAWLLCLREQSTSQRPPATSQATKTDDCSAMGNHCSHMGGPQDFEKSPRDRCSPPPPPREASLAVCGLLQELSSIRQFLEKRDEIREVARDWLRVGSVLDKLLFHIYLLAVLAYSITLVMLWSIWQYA
Summary of the method: as §1

Kv2.1 = molecular target: T7, Kv2.1 (Homo sapiens, UniProt Q14721); assay: cell-based; details: 100% = no change, <100% = inhibition
T7 construct: host or cells: HEK293 or CHO
Summary of the method: as §1

Cav2.1 = molecular target: T8, Cav2.1 (Homo sapiens, UniProt O00555); assay: cell-based; details: 100% = no change, <100% = inhibition
T8 construct: host or cells: HEK293 or CHO
Summary of the method: as §1

Cav2.2 = molecular target: T9, Cav2.2 (Homo sapiens, UniProt Q00975); assay: cell-based; details: 100% = no change, <100% = inhibition
T9 construct: host or cells: HEK293 or CHO
Summary of the method: as §1

TRPA1 = molecular target: T10, TRPA1 (Homo sapiens, UniProt O75762); assay: Ion channel panel (IonWorks Barracuda): TRPA1; assay type: cell-based; details: 100% = no change, <100% = inhibition
T10 construct: host or cells: HEK293 or CHO
Summary of the method: as §1

hERG = hERG (Homo sapiens, UniProt Q12809); assay: in vitro; details: 100% = no change, <100% = inhibition
Summary of the method: as §1

Nav1.5 = Nav1.5 (Homo sapiens, UniProt Q14524); assay: in vitro; details: 100% = no change; for Activity of Nav1.5 with peptide, expressed as a percentage of the reference compound: peptide at 0.2 μM; for Activity of Nav1.5 with peptide (percentage of the reference compound): peptide at 20 μM
Summary of the method: as §1

Nav1.7 = molecular target: T11, Nav1.7 (Homo sapiens, UniProt Q15858); assay: cell-based; assay type: cell-based; details: 100% = no change; for Activity of Nav1.7 with peptide, expressed as a percentage of the reference compound: peptide at 0.2 μM; for Activity of Nav1.7 with peptide (percentage of the reference compound): peptide at 20 μM
T11 construct: host or cells: HEK293 or CHO

α3β4 = molecular target: T12, α3β4 (Homo sapiens, UniProt P30926+P32297); assay: Ion channel panel (IonWorks Barracuda): α3β4; assay type: cell-based; details: 100% = no change, <100% = inhibition
T12 construct: host or cells: HEK293 or CHO
Summary of the method: as §1

NR2B = molecular target: T13, NR2B (Homo sapiens, UniProt Q13224); assay: Ion channel panel (IonWorks Barracuda): NR2B; assay type: cell-based; details: 100% = no change, <100% = inhibition
T13 construct: host or cells: HEK293 or CHO
Summary of the method: as §1

TRPV1 = molecular target: T14, TRPV1 (Homo sapiens, UniProt Q8NER1); assay: Ion channel panel (IonWorks Barracuda): TRPV1; assay type: cell-based; details: 100% = no change, <100% = inhibition
T14 construct: host or cells: HEK293 or CHO
Summary of the method: as §1

NR2A = molecular target: T15, NR2A (Homo sapiens, UniProt Q12879); assay: Ion channel panel (IonWorks Barracuda): NR2A; assay type: cell-based; details: 100% = no change, <100% = inhibition
T15 construct: host or cells: HEK293 or CHO
Summary of the method: as §1

[1] = first of two Nav1.5 columns (probably TP1)
[2] = second of two Nav1.5 columns (probably TP2)
[3] = first of two Nav1.7 columns (probably TP1)
[4] = second of two Nav1.7 columns (probably TP2)

Sequence of Nav1.5 (Q14524 whole entry): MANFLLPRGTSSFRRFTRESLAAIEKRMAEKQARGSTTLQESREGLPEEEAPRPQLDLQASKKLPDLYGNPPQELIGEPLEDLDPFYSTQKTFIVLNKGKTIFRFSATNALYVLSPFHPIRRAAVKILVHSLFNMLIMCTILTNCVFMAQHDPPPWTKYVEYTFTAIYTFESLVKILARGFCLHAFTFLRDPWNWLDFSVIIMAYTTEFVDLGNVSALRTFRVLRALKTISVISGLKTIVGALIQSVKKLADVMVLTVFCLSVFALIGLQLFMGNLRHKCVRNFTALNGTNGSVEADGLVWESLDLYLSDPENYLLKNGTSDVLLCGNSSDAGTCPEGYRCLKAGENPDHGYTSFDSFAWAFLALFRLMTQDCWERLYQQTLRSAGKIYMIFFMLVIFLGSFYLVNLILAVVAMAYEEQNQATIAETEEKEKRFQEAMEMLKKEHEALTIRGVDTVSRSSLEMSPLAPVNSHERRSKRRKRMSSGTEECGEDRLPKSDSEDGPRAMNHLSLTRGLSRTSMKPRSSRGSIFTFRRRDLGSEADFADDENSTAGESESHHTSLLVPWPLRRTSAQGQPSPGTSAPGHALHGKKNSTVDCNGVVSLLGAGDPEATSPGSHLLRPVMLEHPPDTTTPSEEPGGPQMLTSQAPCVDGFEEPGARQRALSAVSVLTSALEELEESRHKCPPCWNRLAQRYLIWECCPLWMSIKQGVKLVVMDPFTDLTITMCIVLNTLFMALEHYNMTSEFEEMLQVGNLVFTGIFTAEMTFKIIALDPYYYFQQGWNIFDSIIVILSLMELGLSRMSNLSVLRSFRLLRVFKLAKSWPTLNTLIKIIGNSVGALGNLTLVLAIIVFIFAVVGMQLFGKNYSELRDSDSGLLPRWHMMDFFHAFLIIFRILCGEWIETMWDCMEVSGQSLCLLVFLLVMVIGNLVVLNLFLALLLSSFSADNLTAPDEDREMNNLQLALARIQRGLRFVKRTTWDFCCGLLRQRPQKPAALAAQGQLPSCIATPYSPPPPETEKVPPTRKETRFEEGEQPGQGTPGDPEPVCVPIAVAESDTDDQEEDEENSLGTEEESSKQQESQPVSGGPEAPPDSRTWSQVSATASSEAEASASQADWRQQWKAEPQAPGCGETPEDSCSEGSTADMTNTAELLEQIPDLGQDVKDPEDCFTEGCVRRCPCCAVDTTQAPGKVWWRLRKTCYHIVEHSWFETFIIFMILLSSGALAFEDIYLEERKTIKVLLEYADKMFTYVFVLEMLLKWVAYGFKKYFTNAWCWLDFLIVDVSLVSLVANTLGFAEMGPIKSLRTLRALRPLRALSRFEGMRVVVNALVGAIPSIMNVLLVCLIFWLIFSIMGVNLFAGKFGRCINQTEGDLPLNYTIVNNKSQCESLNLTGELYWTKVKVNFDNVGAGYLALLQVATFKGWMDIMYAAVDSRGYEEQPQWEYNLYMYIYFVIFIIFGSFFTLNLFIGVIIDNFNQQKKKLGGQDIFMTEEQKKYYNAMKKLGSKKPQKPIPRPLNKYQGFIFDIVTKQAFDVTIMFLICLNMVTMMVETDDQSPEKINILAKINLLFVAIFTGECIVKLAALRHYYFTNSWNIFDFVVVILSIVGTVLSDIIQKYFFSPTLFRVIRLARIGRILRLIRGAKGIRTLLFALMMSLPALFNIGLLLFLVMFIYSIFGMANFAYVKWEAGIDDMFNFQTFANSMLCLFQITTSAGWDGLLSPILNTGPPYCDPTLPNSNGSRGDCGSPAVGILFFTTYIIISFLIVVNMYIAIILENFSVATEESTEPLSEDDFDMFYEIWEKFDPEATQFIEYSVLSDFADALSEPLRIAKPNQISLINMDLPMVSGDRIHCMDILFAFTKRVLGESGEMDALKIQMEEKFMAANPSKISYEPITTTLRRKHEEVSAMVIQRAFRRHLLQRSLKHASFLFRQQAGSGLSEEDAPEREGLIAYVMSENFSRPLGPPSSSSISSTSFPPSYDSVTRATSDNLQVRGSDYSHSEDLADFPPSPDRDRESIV
T11 sequence (Q15858 whole entry): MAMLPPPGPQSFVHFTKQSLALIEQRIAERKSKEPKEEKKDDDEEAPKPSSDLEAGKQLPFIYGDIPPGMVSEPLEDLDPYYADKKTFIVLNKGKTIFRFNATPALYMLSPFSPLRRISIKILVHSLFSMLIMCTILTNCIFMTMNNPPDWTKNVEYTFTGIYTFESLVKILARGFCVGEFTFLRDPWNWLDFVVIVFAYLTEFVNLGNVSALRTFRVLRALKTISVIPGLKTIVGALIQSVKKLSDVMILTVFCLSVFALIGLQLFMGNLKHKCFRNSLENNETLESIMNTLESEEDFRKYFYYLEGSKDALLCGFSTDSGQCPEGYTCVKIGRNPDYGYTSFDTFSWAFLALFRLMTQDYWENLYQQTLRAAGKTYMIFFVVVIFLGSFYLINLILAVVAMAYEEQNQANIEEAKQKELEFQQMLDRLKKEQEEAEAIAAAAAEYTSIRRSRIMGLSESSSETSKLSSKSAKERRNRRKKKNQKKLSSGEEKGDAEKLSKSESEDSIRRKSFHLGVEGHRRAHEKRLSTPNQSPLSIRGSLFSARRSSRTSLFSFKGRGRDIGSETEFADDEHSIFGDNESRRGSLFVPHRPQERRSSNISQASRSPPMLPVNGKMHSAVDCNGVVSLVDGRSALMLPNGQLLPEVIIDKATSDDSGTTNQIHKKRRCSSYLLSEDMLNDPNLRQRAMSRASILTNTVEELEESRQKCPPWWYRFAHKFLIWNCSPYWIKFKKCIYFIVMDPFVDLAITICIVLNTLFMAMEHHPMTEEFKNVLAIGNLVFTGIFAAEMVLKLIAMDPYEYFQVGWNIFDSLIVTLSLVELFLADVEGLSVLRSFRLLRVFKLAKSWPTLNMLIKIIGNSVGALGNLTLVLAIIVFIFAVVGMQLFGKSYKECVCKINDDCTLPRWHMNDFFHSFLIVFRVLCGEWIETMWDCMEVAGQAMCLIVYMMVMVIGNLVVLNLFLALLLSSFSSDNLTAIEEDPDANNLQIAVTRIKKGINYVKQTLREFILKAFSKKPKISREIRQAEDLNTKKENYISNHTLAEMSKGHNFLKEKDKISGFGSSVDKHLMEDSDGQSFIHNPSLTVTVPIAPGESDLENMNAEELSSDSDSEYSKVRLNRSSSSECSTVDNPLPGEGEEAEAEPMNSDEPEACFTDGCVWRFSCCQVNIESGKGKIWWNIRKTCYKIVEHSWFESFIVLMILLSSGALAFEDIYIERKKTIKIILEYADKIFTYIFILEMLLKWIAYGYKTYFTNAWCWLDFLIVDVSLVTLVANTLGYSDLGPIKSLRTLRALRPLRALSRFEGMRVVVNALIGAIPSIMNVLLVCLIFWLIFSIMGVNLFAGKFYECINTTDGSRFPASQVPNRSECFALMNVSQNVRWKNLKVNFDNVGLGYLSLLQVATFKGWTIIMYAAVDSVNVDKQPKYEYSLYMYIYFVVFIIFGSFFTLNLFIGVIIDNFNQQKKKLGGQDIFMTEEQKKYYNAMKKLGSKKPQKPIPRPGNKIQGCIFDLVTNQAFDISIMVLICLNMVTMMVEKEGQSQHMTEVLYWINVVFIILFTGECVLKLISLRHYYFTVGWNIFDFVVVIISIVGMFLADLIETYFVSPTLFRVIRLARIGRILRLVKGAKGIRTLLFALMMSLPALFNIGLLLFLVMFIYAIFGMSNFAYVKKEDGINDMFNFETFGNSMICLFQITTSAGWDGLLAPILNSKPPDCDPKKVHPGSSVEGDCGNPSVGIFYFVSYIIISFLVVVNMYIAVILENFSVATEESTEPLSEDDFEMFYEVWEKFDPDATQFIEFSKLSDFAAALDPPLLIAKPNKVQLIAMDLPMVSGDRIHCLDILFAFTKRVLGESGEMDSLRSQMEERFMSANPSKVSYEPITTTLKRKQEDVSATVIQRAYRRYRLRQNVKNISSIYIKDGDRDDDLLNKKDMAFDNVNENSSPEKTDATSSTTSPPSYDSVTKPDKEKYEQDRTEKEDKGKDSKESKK
Sequence of hERG (Q12809 whole entry): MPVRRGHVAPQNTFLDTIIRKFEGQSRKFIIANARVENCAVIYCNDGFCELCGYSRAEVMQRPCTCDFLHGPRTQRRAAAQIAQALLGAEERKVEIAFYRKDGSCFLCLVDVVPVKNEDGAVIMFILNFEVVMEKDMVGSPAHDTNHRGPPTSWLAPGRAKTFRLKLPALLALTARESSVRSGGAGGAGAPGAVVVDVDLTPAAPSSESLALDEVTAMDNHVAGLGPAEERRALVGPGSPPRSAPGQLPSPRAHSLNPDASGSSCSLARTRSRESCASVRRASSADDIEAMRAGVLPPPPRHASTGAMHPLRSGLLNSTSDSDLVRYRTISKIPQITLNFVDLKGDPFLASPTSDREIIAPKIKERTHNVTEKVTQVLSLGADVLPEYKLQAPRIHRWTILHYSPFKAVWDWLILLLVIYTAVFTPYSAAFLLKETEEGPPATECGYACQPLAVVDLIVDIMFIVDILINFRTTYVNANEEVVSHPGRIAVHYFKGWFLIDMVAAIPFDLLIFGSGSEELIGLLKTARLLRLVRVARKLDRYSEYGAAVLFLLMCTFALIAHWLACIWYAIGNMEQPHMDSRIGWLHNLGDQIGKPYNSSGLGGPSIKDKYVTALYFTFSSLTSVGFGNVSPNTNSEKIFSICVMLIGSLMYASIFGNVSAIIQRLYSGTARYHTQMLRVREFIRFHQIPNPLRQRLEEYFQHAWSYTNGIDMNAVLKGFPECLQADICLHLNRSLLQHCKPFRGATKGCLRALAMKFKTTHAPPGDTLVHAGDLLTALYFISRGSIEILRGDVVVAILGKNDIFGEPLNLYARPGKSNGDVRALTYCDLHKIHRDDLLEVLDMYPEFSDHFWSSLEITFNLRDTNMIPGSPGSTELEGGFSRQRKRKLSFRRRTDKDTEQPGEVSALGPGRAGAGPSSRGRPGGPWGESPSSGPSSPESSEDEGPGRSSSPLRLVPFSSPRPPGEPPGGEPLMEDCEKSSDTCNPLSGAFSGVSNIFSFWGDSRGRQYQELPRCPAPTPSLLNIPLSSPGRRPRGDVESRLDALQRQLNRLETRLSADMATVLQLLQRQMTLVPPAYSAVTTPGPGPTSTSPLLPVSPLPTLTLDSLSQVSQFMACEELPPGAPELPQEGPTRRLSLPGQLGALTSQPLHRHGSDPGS

## 10 (GSQVQTNVKCQGGSCASVCRREIGVAAGKCINGKCVCYRN) [compound 10]
α4β2; peptide at 0.2 μM
  Activity of a4b2 with peptide, expressed as a percentage of the reference compound: 96%
α4β2; peptide at 20 μM
  Activity of a4b2 with peptide (percentage of the reference compound): 94%
Kir2.1; peptide at 0.2 μM
  Activity of Kir2.1 with peptide, expressed as a percentage of the reference compound: 100%
Kir2.1; peptide at 20 μM
  Activity of Kir2.1 with peptide (percentage of the reference compound): 92%
Kv1.3; peptide at 0.2 μM
  Activity of Kv1.3 with peptide, expressed as a percentage of the reference compound: 101%
Kv1.3; peptide at 20 μM
  Activity of Kv1.3 with peptide (percentage of the reference compound): 93%
Kv1.2; peptide at 0.2 μM
  Activity of Kv1.2 with peptide, expressed as a percentage of the reference compound: 135%
Kv1.2; peptide at 20 μM
  Activity of Kv1.2 with peptide (percentage of the reference compound): 77%
Kv1.1; peptide at 0.2 μM
  Activity of Kv1.1 with peptide, expressed as a percentage of the reference compound: 117%
Kv1.1; peptide at 20 μM
  Activity of Kv1.1 with peptide (percentage of the reference compound): 84%
GABA; peptide at 0.2 μM
  Activity of GABA with peptide, expressed as a percentage of the reference compound: 129%
GABA; peptide at 20 μM
  Activity of GABA with peptide (percentage of the reference compound): 111%
5HT3a
  Activity of 5HT3a with peptide (percentage of the reference compound): 104%
  Activity of 5HT3a with peptide, expressed as a percentage of the reference compound: 90%
Kv2.1; peptide at 0.2 μM
  Activity of Kv2.1 with peptide, expressed as a percentage of the reference compound: 88%
Kv2.1; peptide at 20 μM
  Activity of Kv2.1 with peptide (percentage of the reference compound): 109%
Cav2.1; peptide at 0.2 μM
  Activity of Cav2.1 with peptide, expressed as a percentage of the reference compound: 104%
Cav2.1; peptide at 20 μM
  Activity of Cav2.1 with peptide (percentage of the reference compound): 96%
Cav2.2; peptide at 0.2 μM
  Activity of Cav2.2 with peptide, expressed as a percentage of the reference compound: 98%
Cav2.2; peptide at 20 μM
  Activity of Cav2.2 with peptide (percentage of the reference compound): 94%
TRPA1; peptide at 0.2 μM
  Activity of TRPA1 with peptide, expressed as a percentage of the reference compound: 108%
TRPA1; peptide at 20 μM
  Activity of TRPA1 with peptide (percentage of the reference compound): 107%
hERG; peptide at 0.2 μM
  Activity of hERG with peptide, expressed as a percentage of the reference compound: 97%
hERG; peptide at 20 μM
  Activity of hERG with peptide (percentage of the reference compound): 80%
Nav1.5; [1]
  Activity of Nav1.5 with peptide, expressed as a percentage of the reference compound: 93%
  Activity of Nav1.5 with peptide (percentage of the reference compound): 114%
Nav1.5; [2]
  Activity of Nav1.5 with peptide, expressed as a percentage of the reference compound: 90%
  Activity of Nav1.5 with peptide (percentage of the reference compound): 116%
Nav1.7; [3]
  Activity of Nav1.7 with peptide, expressed as a percentage of the reference compound: 105%
  Activity of Nav1.7 with peptide (percentage of the reference compound): 106%
Nav1.7; [4]
  Activity of Nav1.7 with peptide, expressed as a percentage of the reference compound: 98%
  Activity of Nav1.7 with peptide (percentage of the reference compound): 90%
α3β4; peptide at 0.2 μM
  Activity of a3b4 with peptide, expressed as a percentage of the reference compound: 97%
α3β4; peptide at 20 μM
  Activity of a3b4 with peptide (percentage of the reference compound): 104%
NR2B; peptide at 0.2 μM
  Activity of NR2B with peptide, expressed as a percentage of the reference compound: 82%
NR2B; peptide at 20 μM
  Activity of NR2B with peptide (percentage of the reference compound): 98%
TRPV1; peptide at 0.2 μM
  Activity of TRPV1 with peptide, expressed as a percentage of the reference compound: 111%
TRPV1; peptide at 20 μM
  Activity of TRPV1 with peptide (percentage of the reference compound): 98%
NR2A; peptide at 0.2 μM
  Activity of NR2A with peptide, expressed as a percentage of the reference compound: 84%
NR2A; peptide at 20 μM
  Activity of NR2A with peptide (percentage of the reference compound): 65%
